Reference: US20150118700
Numbering of substitutions follows the chain as printed. Numbers in names are those of the source.

B1: CFP-T7-H2-62Q (protein)
chain: MTSNRADTRVIVVGGGGTIGSSTALHLVRSGYAPANITVLDTFEIPSAQSAGHDLNKIMGIQLRNKVDLQMSLEARQMWKEDELFQPFFHNTGRMDCEHTPEGIEDLKKLYQALHDAGAGLEKTHAWLDNEDEILSKMPLLQRDQIQGWKAIWSQDGGWLAAAKAINAIGQFLKERGVKFGFGGAGSFKQPLFDDEGTTCIGVETADGTKYYADKVVLAAGAWSPTLVDLEDQCCSKAWVYAHIQLTPEEAAEYKGVPVVYNGEFGFFFEPDEFGVIKVCDEFPGFSRFKEHQPYGAPSPKRISVPRSHAKHPTDTYPDASEVSIKKAIATFLPRFQDKELFNRALCWCTDTADAALLMCEHPKWKNFILATGDSGHSFKILPNVGKYVVELIEGRLPEEMAYQWRWRPGGDALKSRRAAPPKDLADMPGWKHDPKL
B2: CFP-T7-H2-62E (protein)
chain: B1 chain with Q62E
B3: CFP-T7-H2 (protein)
chain: B1 chain with Q62A
B4: CFP-T7-H6 (protein)
chain: B1 chain with Q62D
B5: CFP-T7-H7 (protein)
chain: B1 chain with Q62D, R64A
B6: CFP-T7-H8 (protein)
chain: B1 chain with Q62D, R64E
B7: CFP-T7-H9 (protein)
chain: B1 chain with Q62D, R64H
B8: CFP-T7-H10 (protein)
chain: B1 chain with Q62D, D106A
B9: CFP-T7-H11 (protein)
chain: B1 chain with Q62D, D106K
B10: CFP-T7-H12 (protein)
chain: B1 chain with Q62D, D106R
B11: CFP-T7-H13 (protein)
chain: B1 chain with Q62D, A113K
B12: CFP-T7-H14 (protein)
chain: B1 chain with Q62D, A113R
B13: CFP-T7-H1 (protein)
chain: B1 chain with Q62A, L110Q
B14: CFP-T7-H24 (protein)
chain: B1 chain with Q62D, L63A, D106K, A113K
B15: CFP-T7-H25 (protein)
chain: B1 chain with Q62D, L63D, D106K, A113K
B16: CFP-T7-H26 (protein)
chain: B1 chain with Q62D, L63H, D106K, A113K
B17: CFP-T7-H27 (protein)
chain: B1 chain with Q62D, L63K, D106K, A113K
B18: CFP-T7-H28 (protein)
chain: B1 chain with Q62D, L63H, E102K, D106K, A113K
B19: CFP-T7-H29 (protein)
chain: B1 chain with Q62D, L63H, D106K, A113K, A419K
B20: CFP-T7-H3 (protein)
chain: B1 chain with Q62A, L110F
B21: fructosyl peptide oxidase derived from Eupenicillium terrenum (EFP-T5) (protein)
chain: MAHSRASTKVVVVGGGGTIGSSTALHLIRSGYTPSNITVLDVYKTPSLQSAGHDLNKIMGIRLRNGPDLQLSLESLDMWQNDELFKPFFHQVGMIDCSSSKEGIENLRRKYQTLLDAGIGLEKTNVWLESEDEILAKAPNFTREQVKGWKGLFCTDGGWLAAAKAINAIGIFLQDKGVKFGFGDAGTFQQPLFAADGKTCIGLETTDGTKYFADKVVLAAGAWSPTLVDLEDQCVSKAWVFAHIQLTPKEADAYKNVPVVYDGEYGFFFEPDEYGVIKVCDEFPGFSRFKLHQPYGAASPKMISVPRSHAKHPTDTYPDASEVTIRKAIARFLPEFKDKELFNRTMCWCTDTADANLLICEHPKWKNFILATGDSGHSFKLLPNIGKYVVELLEGSLSQEMAGAWRWRPGGDALRSRRGAPAKDLAEMPGWKHDAHL
B22: EFP-T5-R62D (protein)
chain: B21 chain with R62D
B23: EFP-T5-62D/63H/106K/110L/113K/355S (protein)
chain: B21 chain with R62D, L63H, N106K, K110L, T113K, A355S
B24: ketoamine oxidase derived from Neocosmospora vasinfecta (NvFX) (protein)
chain: MTTPRKETTVLIIGGGGTIGSSTALHLLRAGYTPSNITVLDTYPIPSAQSAGNDLNKIMGIRLRNKVDLQLSLEARDMWRNDALFRPFFHNTGRLDCESSAEGVEGLRREYQKLVEAGVGLEETHEWLDSEEAILEKAPLLQREEIEGWKAIWSEEGGWLAAAKAINAIGEELQRQGVRFGFGGAGSFKRPLFADDGTTCIGVETVDGTQYHADKVVLAAGAWSPALVDLEEQCCSKAWVYAHMQLTPEEAAVYKGCPVVYHGDVGFFFEPNENGVIKVCDEFPGFTRFKQHQPYGAPAPKPVSVPRSHAKHPTDTYPDASEESIKRAVSTFLPRFKDKPLFNRALCWCTDTADSALLICEHPRWKNFILATGDSGHSFKLLPIIGKHVVELVEGRLADDLAEAWRWRPGQGDARKSIRAAPAKDLADMPGWKHDQDSESR
B25: NvFX-62D/106K/110L (protein)
chain: B24 chain with R62D, G106K, E110L
B26: fructosyl amino acid oxidase derived from Aspergillus nidulans with serine 59 substituted with glycine (AnFX) (protein)
chain: MTPRANTKIIVVGGGGTMGSSTALHLLRAGYTPSNITVLDTCPIPSAQSAGYDLNKIMGIRLRNKPDLQLSLEALDMWKNDPLFKPFFHNVGMIDVSSTEEGIEGLRKKYQSLLDAGIGLEKTNFMLESEDEILAKAPHFTQEQIKGWKGLFCGDGGWLAAAKAINAIGQFLKEQGVKFGFGGAGTFKKPLFADAHEKTCIGVETVDGTKYYADKVVLAAGAWSSTLVDLEEQCVSKAWVFAHIQLTPAEAAAYKNTPVIYDGDYGFFFEPNENGIIKVCDEFPGFTHFKMHQPYGSPAPKPISVPRSHAKHPTDTYPHASEVTIKKAINRFLPRFNDKELFNRAMCWCTDTADANLLVCEHPRWKGFYLATGDSGHSFKLLPNIGKHVVELLEERLESVFKDAWRWRPGSGDALKSRRAAPAKDLADMPGWRNEAKM
B27: AnFX-61D/105K/109L (protein)
chain: B26 chain with R61D, G105K, K109L
B28: CFP-T7-H4 (protein)
chain: B1 chain with Q62A, L110Y
B29: AnFX-61D/62H/101K/105K/109L/112K/355S (protein)
chain: B26 chain with R61D, L62H, E101K, G105K, K109L, S112K, A355S

Molecular target: T1, α-fructosyl hexapeptide (α-fructosyl-valyl-histidyl-leucyl-threonyl-propyl-glutamic acid)
T1 chain: VHLTPE

Row | Protein | αF6P oxidation activity ratio, relative to CFP-T7-H2 designated to be 100 (relative (CFP-T7-H2 = 100)) | αF6P oxidation activity ratio (reference, designated to be 100) (relative (CFP-T7-H2 = 100)) | αF6P oxidation activity, relative to αFVH oxidation activity designated to be 100 (relative (αFVH = 100)) | αF6P oxidation activity ratio (reference, designated to be 100) (relative (CFP-T7-H6 = 100)) | αF6P oxidation activity ratio, relative to CFP-T7-H6 designated to be 100 (relative (CFP-T7-H6 = 100)) | αF6P oxidation activity ratio, relative to CFP-T7-H20 designated to be 100 (relative (CFP-T7-H20 = 100)) | αF6P oxidation activity ratio (reference, designated to be 100) (relative (CFP-T7-H26 = 100)) | αF6P oxidation activity ratio (reference row of the table, 100) (relative (CFP-T7-H28 = 100)) | αF6P oxidation activity ratio, relative to CFP-T7-H26 designated to be 100 (relative (CFP-T7-H26 = 100)) | Specific activity (U/mg), 1 mM αF6P
1 | B1 | 11 | – | – | – | – | – | – | – | – | –
2 | B2 | 21 | – | – | – | – | – | – | – | – | –
3 | B3 | – | 100 | 0.0735 | – | – | – | – | – | – | –
4 | B4 | 513 | – | 3 | 100 | – | – | – | – | – | –
5 | B5 | – | – | – | – | 17 | – | – | – | – | –
6 | B6 | – | – | – | – | 2 | – | – | – | – | –
7 | B7 | – | – | – | – | 44 | – | – | – | – | –
8 | B8 | – | – | – | – | 301 | – | – | – | – | –
9 | B9 | – | – | 12.5 | – | 951 | – | – | – | – | –
10 | B10 | – | – | 11.6 | – | 636 | – | – | – | – | –
11 | B11 | – | – | 4.33 | – | 207 | – | – | – | – | –
12 | B12 | – | – | 4.22 | – | 183 | – | – | – | – | –
13 | B13 | – | – | 0.0316 | – | – | – | – | – | – | –
14 | B14 | – | – | 86.7 | – | – | 123 | – | – | – | –
15 | B15 | – | – | – | – | – | 24 | – | – | – | –
16 | B16 | – | – | 84.3 | – | – | 142 | 100 | – | – | –
17 | B17 | – | – | – | – | – | 7 | – | – | – | –
18 | B18 | – | – | 134 | – | – | – | – | 100 | 117 | –
19 | B19 | – | – | 111 | – | – | – | – | – | 102 | –
20 | B20 | – | – | 0.0298 | – | – | – | – | – | – | –
21 | B21 | – | – | – | – | – | – | – | – | – | 0 U/mg
22 | B22 | – | – | – | – | – | – | – | – | – | 0.0043 U/mg
23 | B23 | – | – | – | – | – | – | – | – | – | 1.12 U/mg
24 | B24 | – | – | – | – | – | – | – | – | – | 0 U/mg
25 | B25 | – | – | – | – | – | – | – | – | – | 0.003 U/mg
26 | B26 | – | – | – | – | – | – | – | – | – | 0 U/mg
27 | B27 | – | – | – | – | – | – | – | – | – | 0.106 U/mg
28 | B28 | – | – | 0.0341 | – | – | – | – | – | – | –
29 | B29 | – | – | – | – | – | – | – | – | – | 0.283 U/mg
